Laboratory results from patent US20180057604A1 (Genentech, published 2018).

T1: cyno TfR extracellular domain (analogous construct to human TfR ecd) (cynomolgus monkey, UniProt Q5RDH6 87-760 (Pongo abelii entry))
T1 construct: also called cynoTfR ecd
T1 chain: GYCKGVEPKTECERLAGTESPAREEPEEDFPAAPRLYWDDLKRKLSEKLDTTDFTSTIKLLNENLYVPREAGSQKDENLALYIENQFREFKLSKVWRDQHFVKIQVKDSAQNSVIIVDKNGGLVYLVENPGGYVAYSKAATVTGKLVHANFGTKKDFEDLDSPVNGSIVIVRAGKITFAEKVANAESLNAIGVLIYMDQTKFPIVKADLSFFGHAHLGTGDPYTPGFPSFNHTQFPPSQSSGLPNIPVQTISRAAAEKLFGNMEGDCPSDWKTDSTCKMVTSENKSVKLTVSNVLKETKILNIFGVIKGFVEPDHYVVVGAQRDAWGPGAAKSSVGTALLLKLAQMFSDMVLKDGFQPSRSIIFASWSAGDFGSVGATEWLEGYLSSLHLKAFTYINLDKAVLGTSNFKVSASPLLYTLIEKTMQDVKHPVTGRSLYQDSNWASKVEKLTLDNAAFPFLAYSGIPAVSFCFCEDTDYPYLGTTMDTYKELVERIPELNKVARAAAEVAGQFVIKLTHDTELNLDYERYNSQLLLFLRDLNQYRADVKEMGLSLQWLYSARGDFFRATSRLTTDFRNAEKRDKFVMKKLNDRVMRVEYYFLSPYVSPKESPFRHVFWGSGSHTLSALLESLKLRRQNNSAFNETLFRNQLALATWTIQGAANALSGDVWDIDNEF


Assays:
[1] = target: T1, cyno TfR extracellular domain …; experiment: ELISA, TfR-coated plate, IgG in culture supernatant;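 also: human or cynomolgus TfR coated at 2 µg/mL, supernatant IgG titrated in 1:5 steps for 1 h, bound antibody read with HRP anti-human Fcγ and TMB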
Experimental: (§1) The Hu/Cy binding ELISA was performed in maxisorp plates coated with 2 μg/ml of purified human or cyno TfR in PBS at 4° C. overnight. Plates were washed with PBS/0.05% Tween 20 and blocked using Superblock blocking buffer in PBS (Thermo Scientific, Hudson, N.H.). Cell culture supernatants containing the expressed Ala scan variant IgGs were serially diluted 1:5 and added to the wells for 1 h. Plates were washed with PBS/0.05% Tween 20 and 1:1000 diluted HRP-Goat-anti human Fcγ (Jackson ImmunoResearch) was added the plate and incubated for 1 hour at room temperature. Plates were washed with PBS/0.05% Tween 20 and detected using TMB substrate (BioFX Laboratories, Owings Mills).

[2] = target: T2, human TfR extracellular domain with N-terminal His tag (human, UniProt P02786 89-760); experiment: as above
T2 construct: Biotinylated in some assays; also called huTfR; HuTfR
Experimental: as §1

| Binder | EC50 [1] | EC50 [2] |
| --- | --- | --- |
| hu15G11.v5 IgG Ala variant L29A (HVR-L1) (antibody, V domains shown, IgG in cell culture supernatant) VH: EVQLVQSGAEVKKPGASVKVSCKASGYTFTSYWMHWVRQAPGQRLEWIGEINPTNGRTNYIEKFKSRATLTVDKSASTAYMELSSLRSEDTAVYYCARGTRAYHYWGQGTMVTVSS VL: DIQMTQSPSSLSASVGDRVTITCRASDNAYSNLAWYQQKPGKSPKLLVYDATNLADGVPSRFSGSGSGTDYTLTISSLQPEDFATYYCQHFWGTPLTFGQGTKVEIK | 0.9 ng/mL | 0.3 ng/mL |
| hu15G11.v5 IgG Ala variant R24A (HVR-L1) (antibody, V domains shown, IgG in cell culture supernatant) VH: EVQLVQSGAEVKKPGASVKVSCKASGYTFTSYWMHWVRQAPGQRLEWIGEINPTNGRTNYIEKFKSRATLTVDKSASTAYMELSSLRSEDTAVYYCARGTRAYHYWGQGTMVTVSS VL: DIQMTQSPSSLSASVGDRVTITCAASDNLYSNLAWYQQKPGKSPKLLVYDATNLADGVPSRFSGSGSGTDYTLTISSLQPEDFATYYCQHFWGTPLTFGQGTKVEIK | 0.4 ng/mL | 0.1 ng/mL |
| hu15G11.v5 IgG Ala variant T52A (HVR-L2) (antibody, V domains shown, IgG in cell culture supernatant) VH: EVQLVQSGAEVKKPGASVKVSCKASGYTFTSYWMHWVRQAPGQRLEWIGEINPTNGRTNYIEKFKSRATLTVDKSASTAYMELSSLRSEDTAVYYCARGTRAYHYWGQGTMVTVSS VL: DIQMTQSPSSLSASVGDRVTITCRASDNLYSNLAWYQQKPGKSPKLLVYDAANLADGVPSRFSGSGSGTDYTLTISSLQPEDFATYYCQHFWGTPLTFGQGTKVEIK | 0.3 ng/mL | 0.2 ng/mL |
| hu15G11.v5 IgG Ala variant M34A (HVR-H1) (antibody, name in Kabat numbering, V domains shown, IgG in cell culture supernatant) VH: EVQLVQSGAEVKKPGASVKVSCKASGYTFTSYWAHWVRQAPGQRLEWIGEINPTNGRTNYIEKFKSRATLTVDKSASTAYMELSSLRSEDTAVYYCARGTRAYHYWGQGTMVTVSS VL: DIQMTQSPSSLSASVGDRVTITCRASDNLYSNLAWYQQKPGKSPKLLVYDATNLADGVPSRFSGSGSGTDYTLTISSLQPEDFATYYCQHFWGTPLTFGQGTKVEIK | 1.1 ng/mL | 0.4 ng/mL |
| hu15G11.v5 IgG Ala variant L54A (HVR-L2) (antibody, V domains shown, IgG in cell culture supernatant) VH: EVQLVQSGAEVKKPGASVKVSCKASGYTFTSYWMHWVRQAPGQRLEWIGEINPTNGRTNYIEKFKSRATLTVDKSASTAYMELSSLRSEDTAVYYCARGTRAYHYWGQGTMVTVSS VL: DIQMTQSPSSLSASVGDRVTITCRASDNLYSNLAWYQQKPGKSPKLLVYDATNAADGVPSRFSGSGSGTDYTLTISSLQPEDFATYYCQHFWGTPLTFGQGTKVEIK | 0.5 ng/mL | 0.4 ng/mL |
| hu15G11.v5 IgG Ala variant N53A (HVR-L2) (antibody, V domains shown, IgG in cell culture supernatant) VH: EVQLVQSGAEVKKPGASVKVSCKASGYTFTSYWMHWVRQAPGQRLEWIGEINPTNGRTNYIEKFKSRATLTVDKSASTAYMELSSLRSEDTAVYYCARGTRAYHYWGQGTMVTVSS VL: DIQMTQSPSSLSASVGDRVTITCRASDNLYSNLAWYQQKPGKSPKLLVYDATALADGVPSRFSGSGSGTDYTLTISSLQPEDFATYYCQHFWGTPLTFGQGTKVEIK | 0.6 ng/mL | 0.3 ng/mL |
| hu15G11.v5 IgG Ala variant N32A (HVR-L1) (antibody, V domains shown, IgG in cell culture supernatant) VH: EVQLVQSGAEVKKPGASVKVSCKASGYTFTSYWMHWVRQAPGQRLEWIGEINPTNGRTNYIEKFKSRATLTVDKSASTAYMELSSLRSEDTAVYYCARGTRAYHYWGQGTMVTVSS VL: DIQMTQSPSSLSASVGDRVTITCRASDNLYSALAWYQQKPGKSPKLLVYDATNLADGVPSRFSGSGSGTDYTLTISSLQPEDFATYYCQHFWGTPLTFGQGTKVEIK | 4 ng/mL | 1.6 ng/mL |
| hu15G11.v5 IgG Ala variant S65A (HVR-H2) (antibody, name in Kabat numbering, V domains shown, IgG in cell culture supernatant; Kabat numbers after 52a lie one below the linear count) VH: EVQLVQSGAEVKKPGASVKVSCKASGYTFTSYWMHWVRQAPGQRLEWIGEINPTNGRTNYIEKFKARATLTVDKSASTAYMELSSLRSEDTAVYYCARGTRAYHYWGQGTMVTVSS VL: DIQMTQSPSSLSASVGDRVTITCRASDNLYSNLAWYQQKPGKSPKLLVYDATNLADGVPSRFSGSGSGTDYTLTISSLQPEDFATYYCQHFWGTPLTFGQGTKVEIK | 0.7 ng/mL | 0.2 ng/mL |
| hu15G11.v5 IgG Ala variant N52A (HVR-H2) (antibody, V domains shown, IgG in cell culture supernatant; also called 15G11.N52A; 15G11.52A) VH: EVQLVQSGAEVKKPGASVKVSCKASGYTFTSYWMHWVRQAPGQRLEWIGEIAPTNGRTNYIEKFKSRATLTVDKSASTAYMELSSLRSEDTAVYYCARGTRAYHYWGQGTMVTVSS VL: DIQMTQSPSSLSASVGDRVTITCRASDNLYSNLAWYQQKPGKSPKLLVYDATNLADGVPSRFSGSGSGTDYTLTISSLQPEDFATYYCQHFWGTPLTFGQGTKVEIK | 0.9 ng/mL | 0.3 ng/mL |
| hu15G11.v5 IgG Ala variant R56A (HVR-H2) (antibody, name in Kabat numbering, V domains shown, IgG in cell culture supernatant; Kabat numbers after 52a lie one below the linear count) VH: EVQLVQSGAEVKKPGASVKVSCKASGYTFTSYWMHWVRQAPGQRLEWIGEINPTNGATNYIEKFKSRATLTVDKSASTAYMELSSLRSEDTAVYYCARGTRAYHYWGQGTMVTVSS VL: DIQMTQSPSSLSASVGDRVTITCRASDNLYSNLAWYQQKPGKSPKLLVYDATNLADGVPSRFSGSGSGTDYTLTISSLQPEDFATYYCQHFWGTPLTFGQGTKVEIK | 5410 ng/mL | 55.1 ng/mL |
| hu15G11.v5 IgG Ala variant T28A (HVR-H1) (antibody, name in Kabat numbering, V domains shown, IgG in cell culture supernatant) VH: EVQLVQSGAEVKKPGASVKVSCKASGYAFTSYWMHWVRQAPGQRLEWIGEINPTNGRTNYIEKFKSRATLTVDKSASTAYMELSSLRSEDTAVYYCARGTRAYHYWGQGTMVTVSS VL: DIQMTQSPSSLSASVGDRVTITCRASDNLYSNLAWYQQKPGKSPKLLVYDATNLADGVPSRFSGSGSGTDYTLTISSLQPEDFATYYCQHFWGTPLTFGQGTKVEIK | 0.8 ng/mL | 0.4 ng/mL |
| hu15G11.v5 IgG Ala variant P52aA (HVR-H2) (antibody, name in Kabat numbering, V domains shown, IgG in cell culture supernatant) VH: EVQLVQSGAEVKKPGASVKVSCKASGYTFTSYWMHWVRQAPGQRLEWIGEINATNGRTNYIEKFKSRATLTVDKSASTAYMELSSLRSEDTAVYYCARGTRAYHYWGQGTMVTVSS VL: DIQMTQSPSSLSASVGDRVTITCRASDNLYSNLAWYQQKPGKSPKLLVYDATNLADGVPSRFSGSGSGTDYTLTISSLQPEDFATYYCQHFWGTPLTFGQGTKVEIK | 8.1 ng/mL | 3.9 ng/mL |

Continued, values first:

| EC50 [1] | EC50 [2] | Binder |
| --- | --- | --- |
| 0.8 ng/mL | 0.2 ng/mL | hu15G11.v5 IgG Ala variant N28A (HVR-L1) (antibody, V domains shown, IgG in cell culture supernatant) VH: EVQLVQSGAEVKKPGASVKVSCKASGYTFTSYWMHWVRQAPGQRLEWIGEINPTNGRTNYIEKFKSRATLTVDKSASTAYMELSSLRSEDTAVYYCARGTRAYHYWGQGTMVTVSS VL: DIQMTQSPSSLSASVGDRVTITCRASDALYSNLAWYQQKPGKSPKLLVYDATNLADGVPSRFSGSGSGTDYTLTISSLQPEDFATYYCQHFWGTPLTFGQGTKVEIK |
| 0.9 ng/mL | 0.4 ng/mL | hu15G11.v5 IgG Ala variant T30A (HVR-H1) (antibody, name in Kabat numbering, V domains shown, IgG in cell culture supernatant) VH: EVQLVQSGAEVKKPGASVKVSCKASGYTFASYWMHWVRQAPGQRLEWIGEINPTNGRTNYIEKFKSRATLTVDKSASTAYMELSSLRSEDTAVYYCARGTRAYHYWGQGTMVTVSS VL: DIQMTQSPSSLSASVGDRVTITCRASDNLYSNLAWYQQKPGKSPKLLVYDATNLADGVPSRFSGSGSGTDYTLTISSLQPEDFATYYCQHFWGTPLTFGQGTKVEIK |
| 0.7 ng/mL | 0.3 ng/mL | hu15G11.v5 IgG Ala variant S31A (HVR-L1) (antibody, V domains shown, IgG in cell culture supernatant; also called S31A (light chain)) VH: EVQLVQSGAEVKKPGASVKVSCKASGYTFTSYWMHWVRQAPGQRLEWIGEINPTNGRTNYIEKFKSRATLTVDKSASTAYMELSSLRSEDTAVYYCARGTRAYHYWGQGTMVTVSS VL: DIQMTQSPSSLSASVGDRVTITCRASDNLYANLAWYQQKPGKSPKLLVYDATNLADGVPSRFSGSGSGTDYTLTISSLQPEDFATYYCQHFWGTPLTFGQGTKVEIK |
| 0.1 ng/mL | 0.05 ng/mL | hu15G11.v5 IgG Ala variant S31A (HVR-H1) (antibody, name in Kabat numbering, V domains shown, IgG in cell culture supernatant; also called S31A (heavy chain)) VH: EVQLVQSGAEVKKPGASVKVSCKASGYTFTAYWMHWVRQAPGQRLEWIGEINPTNGRTNYIEKFKSRATLTVDKSASTAYMELSSLRSEDTAVYYCARGTRAYHYWGQGTMVTVSS VL: DIQMTQSPSSLSASVGDRVTITCRASDNLYSNLAWYQQKPGKSPKLLVYDATNLADGVPSRFSGSGSGTDYTLTISSLQPEDFATYYCQHFWGTPLTFGQGTKVEIK |
| 0.6 ng/mL | 0.2 ng/mL | hu15G11.v5 IgG Ala variant S26A (HVR-L1) (antibody, V domains shown, IgG in cell culture supernatant) VH: EVQLVQSGAEVKKPGASVKVSCKASGYTFTSYWMHWVRQAPGQRLEWIGEINPTNGRTNYIEKFKSRATLTVDKSASTAYMELSSLRSEDTAVYYCARGTRAYHYWGQGTMVTVSS VL: DIQMTQSPSSLSASVGDRVTITCRAADNLYSNLAWYQQKPGKSPKLLVYDATNLADGVPSRFSGSGSGTDYTLTISSLQPEDFATYYCQHFWGTPLTFGQGTKVEIK |
| 0.1 ng/mL | 0.05 ng/mL | hu15G11.v5 IgG Ala variant L33A (HVR-L1) (antibody, V domains shown, IgG in cell culture supernatant) VH: EVQLVQSGAEVKKPGASVKVSCKASGYTFTSYWMHWVRQAPGQRLEWIGEINPTNGRTNYIEKFKSRATLTVDKSASTAYMELSSLRSEDTAVYYCARGTRAYHYWGQGTMVTVSS VL: DIQMTQSPSSLSASVGDRVTITCRASDNLYSNAAWYQQKPGKSPKLLVYDATNLADGVPSRFSGSGSGTDYTLTISSLQPEDFATYYCQHFWGTPLTFGQGTKVEIK |
| 80.4 ng/mL | 6.3 ng/mL | hu15G11.v5 IgG Ala variant N58A (HVR-H2) (antibody, name in Kabat numbering, V domains shown, IgG in cell culture supernatant; Kabat numbers after 52a lie one below the linear count) VH: EVQLVQSGAEVKKPGASVKVSCKASGYTFTSYWMHWVRQAPGQRLEWIGEINPTNGRTAYIEKFKSRATLTVDKSASTAYMELSSLRSEDTAVYYCARGTRAYHYWGQGTMVTVSS VL: DIQMTQSPSSLSASVGDRVTITCRASDNLYSNLAWYQQKPGKSPKLLVYDATNLADGVPSRFSGSGSGTDYTLTISSLQPEDFATYYCQHFWGTPLTFGQGTKVEIK |
